# In ChEMBL document CHEMBL1212772:
# B1: Beta-lactamase (Escherichia coli), Q53TY8 (protein)
# chain: MMKKSLCCALLLTASFSTFAAAKTEQQIADIVNRTITPLMQEQAIPGMAVAVIYQGKPYYFTWGKADIANNHPVTQQTLFELGSVSKTFNGVLGGDAIARGEIKLSDPVTKYWPELTGKQWQGIRLLHLATYTAGGLPLQIPDDVRDKAALLHFYQNWQPQWTPGAKRLYANSSIGLFGALAVKPSGMSYEEAMTRRVLQPLKLAHTWITVPQNEQKDYAWGYREGKPVHVSPGQLDAEAYGVKSSVIDMARWVQANMDASHVQEKTLQQGIALAQSRYWRIGDMYQGLGWEMLNWPLKADSIINGSDSKVALAALPAVEVNPPAPAVKASWVHKTGSTGGFGSYVAFVPEKNLGIVMLANKSYPNPVRVEAAWRILEKLQ
# B2: Beta-lactamase (Pseudomonas aeruginosa (strain ATCC 15692 / PAO1 / 1C / PRS 101 / LMG12228)), P24735 (protein)
# chain: MRDTRFPCLCGIAASTLLFATTPAIAGEAPADRLKALVDAAVQPVMKANDIPGLAVAISLKGEPHYFSYGLASKEDGRRVTPETLFEIGSVSKTFTATLAGYALTQDKMRLDDRASQHWPALQGSRFDGISLLDLATYTAGGLPLQFPDSVQKDQAQIRDYYRQWQPTYAPGSQRLYSNPSIGLFGYLAARSLGQPFERLMEQQVFPALGLEQTHLDVPEAALAQYAQGYGKDDRPLRVGPGPLDAEGYGVKTSAADLLRFVDANLHPERLDRPWAQALDATHRGYYKVGDMTQGLGWEAYDWPISLKRLQAGNSTPMALQPHRIARLPAPQALEGQRLLNKTGSTNGFGAYVAFVPGRDLGLVILANRNYPNAERVKIAYAILSGLEQQGKVPLKR
# B3: Beta-lactamase OXA-23 (Acinetobacter baumannii), Q9L4P2 (protein)
# chain: MNKYFTCYVVASLFLSGCTVQHNLINETPSQIVQGHNQVIHQYFDEKNTSGVLVIQTDKKINLYGNALSRANTEYVPASTFKMLNALIGLENQKTDINEIFKWKGEKRSFTAWEKDMTLGEAMKLSAVPVYQELARRIGLDLMQKEVKRIGFGNAEIGQQVDNFWLVGPLKVTPIQEVEFVSQLAHTQLPFSEKVQANVKNMLLLEESNGYKIFGKTGWAMDIKPQVGWLTGWVEQPDGKIVAFALNMEMRSEMPASIRNELLMKSLKQLNII
# Columns and labels:
# [1] = substrate: CC(C)(O/N=C(\C(=O)N[C@@H]1C(=O)N2C(C(=O)[O-])=C(C[n+]3ccccc3)CS[C@H]12)c1csc(N)n1)C(=O)O; assay: (§1) Activity of Escherichia coli CMY-2
# [2] = substrate: CC1(C)S[C@@H]2[C@H](NC(=O)Cc3ccccc3)C(=O)N2[C@H]1C(=O)O; assay: as §1
# [3] = substrate: C[C@@H](O)[C@H]1C(=O)N2C(C(=O)O)=C(SCCNC=N)C[C@H]12; assay: as §1
# [4] = substrate: C[C@@H](O)[C@H]1C(=O)N2C(C(=O)O)=C(S[C@@H]3CN[C@H](C(=O)N(C)C)C3)[C@H](C)[C@H]12; assay: as §1
# [5] = substrate: C[C@@H](O)[C@H]1C(=O)N2C(C(=O)O)=C(S[C@@H]3CN[C@H](CNS(N)(=O)=O)C3)[C@H](C)[C@H]12; assay: as §1
# [6] = substrate: O=C(Cc1cccs1)N[C@@H]1C(=O)N2C(C(=O)O)=C(/C=C/c3ccc([N+](=O)[O-])cc3[N+](=O)[O-])CS[C@H]12; assay: as §1
# [7] = substrate: O=C(Cc1cccs1)N[C@@H]1C(=O)N2C(C(=O)[O-])=C(C[n+]3ccccc3)CS[C@H]12; assay: as §1
# [8] = substrate: CC(C)(O/N=C(\C(=O)N[C@@H]1C(=O)N2C(C(=O)[O-])=C(C[n+]3ccccc3)CS[C@H]12)c1csc(N)n1)C(=O)O; assay: (§2) Kcat/Km ratio of Escherichia coli CMY-2
# [9] = substrate: CC1(C)S[C@@H]2[C@H](NC(=O)Cc3ccccc3)C(=O)N2[C@H]1C(=O)O; assay: as §2
# [10] = substrate: C[C@@H](O)[C@H]1C(=O)N2C(C(=O)O)=C(SCCNC=N)C[C@H]12; assay: as §2
# [11] = substrate: C[C@@H](O)[C@H]1C(=O)N2C(C(=O)O)=C(S[C@@H]3CN[C@H](C(=O)N(C)C)C3)[C@H](C)[C@H]12; assay: as §2
# [12] = substrate: C[C@@H](O)[C@H]1C(=O)N2C(C(=O)O)=C(S[C@@H]3CN[C@H](CNS(N)(=O)=O)C3)[C@H](C)[C@H]12; assay: as §2
# [13] = substrate: O=C(Cc1cccs1)N[C@@H]1C(=O)N2C(C(=O)O)=C(/C=C/c3ccc([N+](=O)[O-])cc3[N+](=O)[O-])CS[C@H]12; assay: as §2
# [14] = substrate: O=C(Cc1cccs1)N[C@@H]1C(=O)N2C(C(=O)[O-])=C(C[n+]3ccccc3)CS[C@H]12; assay: as §2
# [15] = compound: C[C@@H](O)[C@H]1C(=O)N2C(C(=O)O)=C(SCCNC=N)C[C@H]12; assay: (§3) Inhibition of Escherichia coli CMY-2 assessed as inhibition of nitrocefin hydrolysis
# [16] = compound: C[C@@H](O)[C@H]1C(=O)N2C(C(=O)O)=C(S[C@@H]3CN[C@H](C(=O)N(C)C)C3)[C@H](C)[C@H]12; assay: as §3
# [17] = substrate: CC1(C)S[C@@H]2[C@H](NC(=O)Cc3ccccc3)C(=O)N2[C@H]1C(=O)O; assay: (§4) Activity of Pseudomonas aeruginosa AmpC
# [18] = substrate: C[C@@H](O)[C@H]1C(=O)N2C(C(=O)O)=C(SCCNC=N)C[C@H]12; assay: as §4
# [19] = substrate: C[C@@H](O)[C@H]1C(=O)N2C(C(=O)O)=C(S[C@@H]3CN[C@H](C(=O)N(C)C)C3)[C@H](C)[C@H]12; assay: as §4
# [20] = substrate: C[C@@H](O)[C@H]1C(=O)N2C(C(=O)O)=C(S[C@@H]3CN[C@H](CNS(N)(=O)=O)C3)[C@H](C)[C@H]12; assay: as §4
# [21] = substrate: O=C(Cc1cccs1)N[C@@H]1C(=O)N2C(C(=O)O)=C(/C=C/c3ccc([N+](=O)[O-])cc3[N+](=O)[O-])CS[C@H]12; assay: as §4
# [22] = substrate: O=C(Cc1cccs1)N[C@@H]1C(=O)N2C(C(=O)[O-])=C(C[n+]3ccccc3)CS[C@H]12; assay: as §4
# [23] = substrate: CC1(C)S[C@@H]2[C@H](NC(=O)Cc3ccccc3)C(=O)N2[C@H]1C(=O)O; assay: (§5) Kcat/Km ratio of Pseudomonas aeruginosa AmpC
# [24] = substrate: C[C@@H](O)[C@H]1C(=O)N2C(C(=O)O)=C(SCCNC=N)C[C@H]12; assay: as §5
# [25] = substrate: C[C@@H](O)[C@H]1C(=O)N2C(C(=O)O)=C(S[C@@H]3CN[C@H](C(=O)N(C)C)C3)[C@H](C)[C@H]12; assay: as §5
# [26] = substrate: C[C@@H](O)[C@H]1C(=O)N2C(C(=O)O)=C(S[C@@H]3CN[C@H](CNS(N)(=O)=O)C3)[C@H](C)[C@H]12; assay: as §5
# [27] = substrate: O=C(Cc1cccs1)N[C@@H]1C(=O)N2C(C(=O)O)=C(/C=C/c3ccc([N+](=O)[O-])cc3[N+](=O)[O-])CS[C@H]12; assay: as §5
# [28] = substrate: O=C(Cc1cccs1)N[C@@H]1C(=O)N2C(C(=O)[O-])=C(C[n+]3ccccc3)CS[C@H]12; assay: as §5
# [29] = compound: C[C@@H](O)[C@H]1C(=O)N2C(C(=O)O)=C(SCCNC=N)C[C@H]12; assay: (§6) Inhibition of Pseudomonas aeruginosa AmpC assessed as inhibition of nitrocefin hydrolysis
# [30] = compound: C[C@@H](O)[C@H]1C(=O)N2C(C(=O)O)=C(S[C@@H]3CN[C@H](C(=O)N(C)C)C3)[C@H](C)[C@H]12; assay: as §6
# [31] = compound: C[C@@H](O)[C@H]1C(=O)N2C(C(=O)O)=C(S[C@@H]3CN[C@H](CNS(N)(=O)=O)C3)[C@H](C)[C@H]12; assay: as §6
# [32] = substrate: CC(C)(O/N=C(\C(=O)N[C@@H]1C(=O)N2C(C(=O)[O-])=C(C[n+]3ccccc3)CS[C@H]12)c1csc(N)n1)C(=O)O; assay: Activity of Pseudomonas aeruginosa SPM-1
# [33] = substrate: CC(C)(O/N=C(\C(=O)N[C@@H]1C(=O)N2C(C(=O)[O-])=C(C[n+]3ccccc3)CS[C@H]12)c1csc(N)n1)C(=O)O; assay: (§7) Activity of Acinetobacter baumannii OXA-23
# [34] = substrate: CC1(C)S[C@@H]2[C@H](NC(=O)Cc3ccccc3)C(=O)N2[C@H]1C(=O)O; assay: as §7
# [35] = substrate: C[C@@H](O)[C@H]1C(=O)N2C(C(=O)O)=C(SCCNC=N)C[C@H]12; assay: as §7
# [36] = substrate: C[C@@H](O)[C@H]1C(=O)N2C(C(=O)O)=C(S[C@@H]3CN[C@H](C(=O)N(C)C)C3)[C@H](C)[C@H]12; assay: as §7
# [37] = substrate: C[C@@H](O)[C@H]1C(=O)N2C(C(=O)O)=C(S[C@@H]3CN[C@H](CNS(N)(=O)=O)C3)[C@H](C)[C@H]12; assay: as §7
# [38] = substrate: O=C(Cc1cccs1)N[C@@H]1C(=O)N2C(C(=O)[O-])=C(C[n+]3ccccc3)CS[C@H]12; assay: as §7
# [39] = substrate: CC(C)(O/N=C(\C(=O)N[C@@H]1C(=O)N2C(C(=O)[O-])=C(C[n+]3ccccc3)CS[C@H]12)c1csc(N)n1)C(=O)O; assay: Kcat/Km ratio of Pseudomonas aeruginosa SPM-1
# [40] = substrate: CC1(C)S[C@@H]2[C@H](NC(=O)Cc3ccccc3)C(=O)N2[C@H]1C(=O)O; conditions: Acinetobacter baumannii
# Description: (§8) Kcat/Km ratio of Acinetobacter baumannii OXA-23
# [41] = substrate: C[C@@H](O)[C@H]1C(=O)N2C(C(=O)O)=C(SCCNC=N)C[C@H]12; conditions: Acinetobacter baumannii
# Description: as §8
# [42] = substrate: C[C@@H](O)[C@H]1C(=O)N2C(C(=O)O)=C(S[C@@H]3CN[C@H](C(=O)N(C)C)C3)[C@H](C)[C@H]12; conditions: Acinetobacter baumannii
# Description: as §8
# [43] = substrate: C[C@@H](O)[C@H]1C(=O)N2C(C(=O)O)=C(S[C@@H]3CN[C@H](CNS(N)(=O)=O)C3)[C@H](C)[C@H]12; conditions: Acinetobacter baumannii
# Description: as §8
# [44] = substrate: O=C(Cc1cccs1)N[C@@H]1C(=O)N2C(C(=O)[O-])=C(C[n+]3ccccc3)CS[C@H]12; conditions: Acinetobacter baumannii
# Description: as §8
# Pseudomonas aeruginosa [45] = assay: Activity of Pseudomonas aeruginosa SPM-1
# Pseudomonas aeruginosa [46] = assay: Kcat/Km ratio of Pseudomonas aeruginosa SPM-1
protein,measurement,setting,value
B1,Km,[1],4.5 µM
same,kcat,[1],0.0035 s⁻¹
same,Km,[2],2.2 µM
same,kcat,[2],22 s⁻¹
same,kcat,[3],< 0.031 s⁻¹
same,kcat,[4],8.1e-05 s⁻¹
same,kcat,[5],7.2e-05 s⁻¹
same,Km,[6],40 µM
same,kcat,[6],1700 s⁻¹
same,Km,[7],290 µM
same,kcat,[7],710 s⁻¹
same,kcat/Km,[8],780 M⁻¹ s⁻¹
same,kcat/Km,[9],1e+07 M⁻¹ s⁻¹
same,kcat/Km,[10],100000 M⁻¹ s⁻¹
same,kcat/Km,[11],1400 M⁻¹ s⁻¹
same,kcat/Km,[12],16000 M⁻¹ s⁻¹
same,kcat/Km,[13],4.3e+07 M⁻¹ s⁻¹
same,kcat/Km,[14],2.4e+06 M⁻¹ s⁻¹
same,Km,[15],0.31 µM
same,Km,[16],0.06 µM
B2,Km,[17],14 µM
same,kcat,[18],< 0.03 s⁻¹
same,kcat,[19],< 0.006 s⁻¹
same,kcat,[20],< 0.006 s⁻¹
same,Km,[21],31 µM
same,kcat,[21],150 s⁻¹
same,Km,[22],350 µM
same,kcat/Km,[23],3.1e+06 M⁻¹ s⁻¹
same,kcat/Km,[24],< 4.8e+06 M⁻¹ s⁻¹
same,kcat/Km,[25],< 4300 M⁻¹ s⁻¹
same,kcat/Km,[26],< 3300 M⁻¹ s⁻¹
same,kcat/Km,[27],4.8e+06 M⁻¹ s⁻¹
same,kcat/Km,[28],270000 M⁻¹ s⁻¹
same,Km,[29],1.6 µM
same,Km,[30],1.4 µM
same,Km,[31],1.8 µM
B3,Km,[32],120 µM
same,kcat,[32],77 s⁻¹
same,kcat,[33],< 0.0042 s⁻¹
same,Km,[34],13 µM
same,kcat,[34],530 s⁻¹
same,Km,[35],1.3 µM
same,kcat,[35],0.92 s⁻¹
same,Km,[36],2.5 µM
same,kcat,[36],0.13 s⁻¹
same,Km,[37],1.8 µM
same,kcat,[37],0.2 s⁻¹
same,Km,[38],1300 µM
same,kcat,[38],450 s⁻¹
same,kcat/Km,[39],640000 M⁻¹ s⁻¹
same,kcat/Km,[40],4.1e+07 M⁻¹ s⁻¹
same,kcat/Km,[41],50000 M⁻¹ s⁻¹
same,kcat/Km,[42],52000 M⁻¹ s⁻¹
same,kcat/Km,[43],110000 M⁻¹ s⁻¹
same,kcat/Km,[44],350000 M⁻¹ s⁻¹
same,Km,Pseudomonas aeruginosa [45],82 µM
same,kcat,Pseudomonas aeruginosa [45],45 s⁻¹
same,kcat/Km,Pseudomonas aeruginosa [46],550000 M⁻¹ s⁻¹
